This note sets out measurements from patent US20260159603A1 (BEAM THERAPEUTICS, published 2026).

For assay [1], the target named is T1, biotinylated human CD5-HIS (human, UniProt P06127 25-372, biotinylated).
T1 construct: Loaded onto streptavidin Octet pins; also called huCD5; SA-human CD5; not shown: HIS tag
T1 sequence (looked up): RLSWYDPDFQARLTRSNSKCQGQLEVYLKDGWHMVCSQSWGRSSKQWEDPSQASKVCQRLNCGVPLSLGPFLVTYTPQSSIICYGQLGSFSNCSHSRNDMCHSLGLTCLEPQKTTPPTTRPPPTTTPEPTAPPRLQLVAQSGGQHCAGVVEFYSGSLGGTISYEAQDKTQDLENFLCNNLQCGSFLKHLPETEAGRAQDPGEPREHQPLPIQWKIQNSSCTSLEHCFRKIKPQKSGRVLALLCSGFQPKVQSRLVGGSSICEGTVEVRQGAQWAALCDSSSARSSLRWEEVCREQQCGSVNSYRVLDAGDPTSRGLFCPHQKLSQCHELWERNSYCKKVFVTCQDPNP
Nature of the assay: BLI; KD on human CD5 divided by KD on cynomolgus CD5.

Assay [2] concerns the target T1, biotinylated human CD5-HIS. Nature of the assay: BLI (Octet), biotinylated CD5-HIS on streptavidin pins.
The target in assay [3] is T2, biotinylated cynomolgus CD5-HIS (cynomolgus).
T2 construct: Loaded onto streptavidin Octet pins; also called CynoCD5; SA-Cyno CD5
The description is as above.

Assay [4] deals with T3, human CD5 on transfected HEK293T cells (human, UniProt P06127 25-495).
T3 construct: whole, on cells; also called huCD5; Human CD5 Cells
T3 sequence (looked up): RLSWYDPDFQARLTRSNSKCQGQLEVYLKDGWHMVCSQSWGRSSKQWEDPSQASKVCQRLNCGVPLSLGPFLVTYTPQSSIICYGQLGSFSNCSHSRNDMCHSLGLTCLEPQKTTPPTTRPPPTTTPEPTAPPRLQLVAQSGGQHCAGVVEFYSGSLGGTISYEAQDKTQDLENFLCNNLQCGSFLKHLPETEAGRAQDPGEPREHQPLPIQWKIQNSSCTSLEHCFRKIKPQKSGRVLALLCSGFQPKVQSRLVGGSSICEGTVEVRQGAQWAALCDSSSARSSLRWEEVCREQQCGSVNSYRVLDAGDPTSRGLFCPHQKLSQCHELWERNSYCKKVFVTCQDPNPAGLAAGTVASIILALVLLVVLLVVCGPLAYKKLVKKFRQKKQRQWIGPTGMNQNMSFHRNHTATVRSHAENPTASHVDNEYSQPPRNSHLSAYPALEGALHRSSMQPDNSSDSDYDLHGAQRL
Nature of the assay: flow cytometry, periplasmic extract on transfected HEK293T cells.

In assay [5] the target is T4, cynomolgus CD5 on transfected HEK293T cells (cynomolgus (Table 8B); rhesus macaque …).
T4 construct: whole, on cells; also called Cynomolgus CD5 Cells; rhesus macaque (Macaca mulatta) CD5
Described as above.

The target in assay [6] is T1, biotinylated human CD5-HIS. The assay is described as follows: BLI (Octet), biotinylated CD5-HIS on streptavidin pins, periplasmic extract, off-rate.
For assay [7], the target named is T2, biotinylated cynomolgus CD5-HIS. The assay is described as above.

B1: ABTx318 (VHH)
VHH: QVQLQESGGGSVQAGGSLRLSCAASGRAFSAYAMGWFRQAPGKEREFVAAINWNGDTALRWNGFATRYADSVKGRFTISRVIAKNTVNLQMNSLKPEDTAVYYCAADTVVSGSYYLAARAEDYEYWGQGTQVTVSS
notes: VHH in periplasmic extract of the phage display clone; also called clone 333; not shown: c-myc tag of the phagemid construct (detected with anti-c-myc 9E10)
On to B1, for which, in assay [1], the “Hu/Cyno KD” value was determined as 1. In addition, the Kd was determined as 2.5 nM in assay [2] and 2.4 nM in assay [3]. The koff was determined as 0.00016 s⁻¹ in assay [2], 0.00022 s⁻¹ in assay [3], 0.0138 s⁻¹ in assay [6] and 0.0546 s⁻¹ in assay [7]. The kon in assay [2] turned out to be 65000 M⁻¹ s⁻¹; in assay [3] it was 91000 M⁻¹ s⁻¹. Further, the “percent of cells showing binding” value turned out to be 84.9% in assay [4] and 67.1% in assay [5].

B2: ABTx321 (VHH)
VHH: QLQLVESGGGLVQPGESLRLSCVVSGDIFSFVGWGWYRQAPGKQREVVAQISTGGLTNYADSVKGRFAISRDNAKRTVYLQMNSLKFEDTAVYYCNVPGHPWGQGTQVTVSS
notes: VHH in periplasmic extract of the phage display clone; also called clone 1043; not shown: c-myc tag of the phagemid construct (detected with anti-c-myc 9E10)
B2: the “Hu/Cyno KD” value in assay [1] came to 0.6. Besides, the Kd in assay [2] was determined as 0.23 nM; in assay [3] it was 0.37 nM. Also, the koff stood at 5.2e-05 s⁻¹ in assay [2], 8.8e-05 s⁻¹ in assay [3], 0.0077 s⁻¹ in assay [6] and 0.0136 s⁻¹ in assay [7]. The results for the association rate constant (kon) in assay [2] and in assay [3] were 220000 M⁻¹ s⁻¹ and 240000 M⁻¹ s⁻¹, respectively. In addition, the “percent of cells showing binding” value in assay [4] stood at 84.9%; in assay [5], 87.7%.

B3: ABTx328 (VHH)
VHH: QVQLVESGGGLVQPGESLRLSCVVSGDIFSFIGWGWYRQAPGKQRELVAQINTGGLTDYADSVKGRFTISRDNAKRTVYLQMNSLKFEDTAVYYCNFPGHSWGQGTQVTVSS
notes: VHH in periplasmic extract of the phage display clone; also called clone 1050; not shown: c-myc tag of the phagemid construct (detected with anti-c-myc 9E10)
For the molecule B3, the “Hu/Cyno KD” value in assay [1] is 0.4. In addition, the Kd in assay [2] came out at 0.36 nM; in assay [3] it was 0.93 nM. In addition, the koff in assay [2] stood at 9.2e-05 s⁻¹; in assay [3] it was 0.00018 s⁻¹; in assay [6], 7.04e-05 s⁻¹; in assay [7], 6.34e-05 s⁻¹. For the same molecule, the results for the kon in assay [2] and in assay [3] were 260000 M⁻¹ s⁻¹ and 190000 M⁻¹ s⁻¹, respectively. The results for the “percent of cells showing binding” value in assay [4] and in assay [5] were 45.4% and 40.7%, respectively.

B4: ABTx322 (VHH)
VHH: QLQLVESGGGLVQPGGSLRLSCAASGSDFLVDATTWFRQAPGNQREFVAIMDIGGVTEYADSVKGRFTISRDHTKNTVYLQMNSLKVEDTAVYYCNTRGLWGQGTLVTVSS
notes: VHH in periplasmic extract of the phage display clone; also called clone 660; not shown: c-myc tag of the phagemid construct (detected with anti-c-myc 9E10)
Regarding B4, the “Hu/Cyno KD” value in assay [1] turned out to be 0.9. Besides, the Kd in assay [2] was determined as 1 nM; in assay [3], 1.1 nM. The koff in assay [2] worked out at 0.0001 s⁻¹; in assay [3] it was 0.00011 s⁻¹; in assay [6], 0.000331 s⁻¹; in assay [7], 0.0028 s⁻¹. The on-rate (kon) in assay [2] was found to be 95000 M⁻¹ s⁻¹; in assay [3] it was 97000 M⁻¹ s⁻¹. The figures for the “percent of cells showing binding” value in assay [4] and in assay [5] were 70.1% and 82.3%, respectively.

B5: ABTx317 (VHH)
VHH: QVQLVESGGGLVQAGASLRLSCAASGRTTYNMGWFRHAPGKDREFVAAIDLYGRATRYANSVKGRFTISRDNAKNTVYLQMNSLKPEDTAVYYCAADTSLPLGVLTKSQRMYGAWGQGTQVTVSS
notes: VHH in periplasmic extract of the phage display clone; also called clone 280; not shown: c-myc tag of the phagemid construct (detected with anti-c-myc 9E10)
As for B5, the “Hu/Cyno KD” value in assay [1] came to 0.9. In addition, the Kd in assay [2] is 2.1 nM; in assay [3], 2.4 nM. The koff is 0.00015 s⁻¹ in assay [2], 0.0002 s⁻¹ in assay [3], 0.0131 s⁻¹ in assay [6] and 0.118 s⁻¹ in assay [7]. The kon in assay [2] is 71000 M⁻¹ s⁻¹; in assay [3], 84000 M⁻¹ s⁻¹. In addition, the “percent of cells showing binding” value stood at 82.8% in assay [4] and 79.5% in assay [5].

B6: ABTx331 (VHH)
VHH: QVQLVESGGGLVQAGASLRLSCAASGRTTYNMGWFRHAPGKDREFVAAIDLYGRATRYANSVKGRFTISRDNAKNTVYLQMNSLKPEDTAVYYCAADTSLPLGVLTESQRLYGAWGQGTQVTVSS
notes: VHH in periplasmic extract of the phage display clone; also called clone 225; not shown: c-myc tag of the phagemid construct (detected with anti-c-myc 9E10)
Turning to B6, the “Hu/Cyno KD” value in assay [1] amounted to 0.6. In addition, the Kd stood at 1.3 nM in assay [2] and 2.2 nM in assay [3]. For the same molecule, the koff came out at 0.00012 s⁻¹ in assay [2], 0.00016 s⁻¹ in assay [3], 0.0145 s⁻¹ in assay [6] and 0.0557 s⁻¹ in assay [7]. In addition, the on-rate constant (kon) is 94000 M⁻¹ s⁻¹ in assay [2] and 71000 M⁻¹ s⁻¹ in assay [3]. In addition, the results for the “percent of cells showing binding” value in assay [4] and in assay [5] were 89.2% and 71.8%, respectively.

B7: ABTx330 (VHH)
VHH: EVQLVESGGGLVQPGGSLRLSCAASGFPFSSSFMSWVRQAPGKGLEWVSTIYSDGSTYYADSVKGRFTISRDNAKKTAYLQMNSLKAEDTAVYYCATVTGSIRGQGTQVTVSS
notes: VHH in periplasmic extract of the phage display clone; also called clone 563; not shown: c-myc tag of the phagemid construct (detected with anti-c-myc 9E10)
As to B7, the “Hu/Cyno KD” value in assay [1] was 0.5. Also, the results for the dissociation constant (Kd) in assay [2] and in assay [3] were 0.65 nM and 1.4 nM, respectively. The koff in assay [2] was determined as 8.3e-05 s⁻¹; in assay [3] it was 0.00014 s⁻¹; in assay [6] it was 0.00231 s⁻¹; in assay [7] it was 0.0102 s⁻¹. Moreover, the results for the kon in assay [2] and in assay [3] were 130000 M⁻¹ s⁻¹ and 110000 M⁻¹ s⁻¹, respectively. For the same molecule, the entries for the “percent of cells showing binding” value in assay [4] and in assay [5] were 78.6% and 72%, respectively.

B8: ABTx315 (VHH)
VHH: QVQLVESGGGLVQAGGSLRLSCAASGRTFGTYTMGWFRQAPGREREFVAAISWSAGRTYYADSMKGRFTISRDNAKNTVYLQMNSLKPEDTAVYYCAADPWTSDSDYDRLTMYDYWGQGTQVTVSS
notes: VHH in periplasmic extract of the phage display clone; also called clone 502; not shown: c-myc tag of the phagemid construct (detected with anti-c-myc 9E10)
Consider B8, for which, in assay [1], the “Hu/Cyno KD” value amounted to 1.8. Besides, the Kd turned out to be 0.4 nM in assay [2] and 0.22 nM in assay [3]. In addition, the koff in assay [2] turned out to be 6.3e-05 s⁻¹; in assay [3] it was 5.8e-05 s⁻¹; in assay [6], 0.000566 s⁻¹; in assay [7], 0.000345 s⁻¹. Moreover, the kon in assay [2] was 160000 M⁻¹ s⁻¹; in assay [3] it was 260000 M⁻¹ s⁻¹. The “percent of cells showing binding” value is 86.4% in assay [4] and 79.1% in assay [5].

B9: ABTx316 (VHH)
VHH: QVQLVESGGGLVQAGGSLRLSCAASGGTVSSYAMGWFRQAPGKEREFVAVISWSGGRTYYADSVKGRFTISRDNAKNTVNLQMNSLKPEDTAVYYCAADPWTSDSDYERLTMYDYWGQGTQVTVSS
notes: VHH in periplasmic extract of the phage display clone; also called clone 525; not shown: c-myc tag of the phagemid construct (detected with anti-c-myc 9E10)
With B9, the “Hu/Cyno KD” value in assay [1] amounted to 0.9. Besides, the Kd is 1.4 nM in assay [2] and 1.6 nM in assay [3]. The off-rate constant (koff) amounted to 0.00015 s⁻¹ in assay [2], 0.00021 s⁻¹ in assay [3], 0.0054 s⁻¹ in assay [6] and 0.0343 s⁻¹ in assay [7]. Also, the kon in assay [2] came out at 110000 M⁻¹ s⁻¹; in assay [3] it was 130000 M⁻¹ s⁻¹. For the same molecule, the “percent of cells showing binding” value in assay [4] came to 85.8%; in assay [5] it was 81.7%.

B10: ABTx320 (VHH)
VHH: QVQLVESGGGLVQAGGSLRLSCAASGPAFSSSGMGWFRQAPGKAREFVASMDWTGGSTYYGDSVKGRFTVSRDNAKMTVHLQMNSLRPEDTAVYYCARGTSGVAAVNLRGFFSWGPGTQVTVSS
notes: VHH in periplasmic extract of the phage display clone; also called clone 157; not shown: c-myc tag of the phagemid construct (detected with anti-c-myc 9E10)
On to B10, for which, in assay [1], the “Hu/Cyno KD” value came to 1.1. For the same molecule, the Kd in assay [2] came out at 2.8 nM; in assay [3], 2.6 nM. The koff in assay [2] came to 0.00019 s⁻¹; in assay [3], 0.0002 s⁻¹; in assay [6], 0.00137 s⁻¹; in assay [7], 0.000757 s⁻¹. In addition, the kon in assay [2] was determined as 69000 M⁻¹ s⁻¹; in assay [3], 76000 M⁻¹ s⁻¹. Moreover, the “percent of cells showing binding” value in assay [4] stood at 80.3%; in assay [5] it was 77.7%.

B11: ABTx319 (VHH)
VHH: QVQLVESGGGLVQPGGSLRLSCAASGFTFSMYSMSWVRQAPGKRLEWVSSISTGARDTAYADSVKGRFTISRDNADNTLYLHMNNLKPEDTAVYYCANGDLRYGPDGYDYRGQGTQVTVSS
notes: VHH in periplasmic extract of the phage display clone; also called clone 917; not shown: c-myc tag of the phagemid construct (detected with anti-c-myc 9E10)
B11: in assay [1], the “Hu/Cyno KD” value turned out to be 0.8. For the same molecule, the Kd was 1.8 nM in assay [2] and 2.2 nM in assay [3]. Moreover, the koff was 0.00013 s⁻¹ in assay [2], 0.0002 s⁻¹ in assay [3], 0.0116 s⁻¹ in assay [6] and 0.0531 s⁻¹ in assay [7]. In addition, the kon was 72000 M⁻¹ s⁻¹ in assay [2] and 94000 M⁻¹ s⁻¹ in assay [3]. Further, the “percent of cells showing binding” value in assay [4] was determined as 74.8%; in assay [5], 62.6%.
